Data on 7 molecules can be found in US20210181204A1 (SYNGENTA PARTICIPATIONS, published 2021).

In experiment [1] the target is T1, Cry1Ab insecticidal protein (Bacillus thuringiensis, UniProt P0A370 1-615). As to the kind of experiment: direct binding ELISA with leaf extracts expressing synNAPS-13, A405. In general terms: ELISA stands for enzyme-linked immunosorbent assay.
Experiment [2] concerns the target T2, mCry3A insecticidal protein (Bacillus thuringiensis subsp. …, UniProt P0A379 48-644, limits assumed).
T2 construct: also called modified Cry3A
T2 sequence: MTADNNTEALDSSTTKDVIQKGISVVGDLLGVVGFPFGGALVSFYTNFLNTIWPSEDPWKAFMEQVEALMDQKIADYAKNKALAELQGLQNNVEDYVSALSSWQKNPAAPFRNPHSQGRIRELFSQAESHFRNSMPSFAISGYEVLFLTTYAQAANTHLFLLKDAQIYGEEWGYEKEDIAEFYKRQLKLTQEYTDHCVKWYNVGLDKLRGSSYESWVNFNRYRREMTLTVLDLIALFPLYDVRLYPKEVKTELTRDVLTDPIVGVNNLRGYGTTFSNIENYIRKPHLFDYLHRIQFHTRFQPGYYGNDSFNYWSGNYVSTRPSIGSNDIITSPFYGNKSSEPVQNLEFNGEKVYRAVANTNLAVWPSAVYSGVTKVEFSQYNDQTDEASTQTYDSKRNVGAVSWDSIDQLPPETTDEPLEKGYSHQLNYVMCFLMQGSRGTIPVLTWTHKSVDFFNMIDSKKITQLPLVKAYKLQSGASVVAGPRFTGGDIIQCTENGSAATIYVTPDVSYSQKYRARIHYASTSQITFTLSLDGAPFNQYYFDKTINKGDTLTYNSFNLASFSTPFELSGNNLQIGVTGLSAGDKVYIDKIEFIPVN
The description is as above.

Experiment [3] deals with eCry3.1Ab hybrid insecticidal protein. As to the kind of experiment: direct ELISA: eCry3.1Ab coated at 1 ug/ml, RGS-His HRP detection.
For experiment [4], the target named is T1, Cry1Ab insecticidal protein. As to the kind of experiment: direct ELISA, coated protein, SA-AP, 405 nm.
In experiment [5] the target is T2, mCry3A insecticidal protein. As to the kind of experiment: direct ELISA, coated protein, SA-AP, 405 nm.
The target in experiment [6] is T3, Cry1Aa insecticidal protein (Bacillus thuringiensis subsp. aizawai, UniProt P0A367 12-1176). As to the kind of experiment: direct ELISA, coated protein, SA-AP, 405 nm.
The target of experiment [7] is Cry1Ai insecticidal protein. As to the kind of experiment: direct ELISA, coated protein, SA-AP, 405 nm.
Experiment [8] deals with Cry1Ab.1Ca insecticidal protein. As to the kind of experiment: direct ELISA, coated protein, SA-AP, 405 nm.
Experiment [9] deals with T1, Cry1Ab insecticidal protein. As to the kind of experiment: sandwich ELISA: synNAPS on streptavidin plate, HRP-antibody detection; Cry1Ab 10 ng/ml.
For experiment [10], the target named is T2, mCry3A insecticidal protein. As to the kind of experiment: sandwich ELISA: synNAPS on streptavidin plate, HRP-antibody detection; mCry3A 60 ng/ml.
For experiment [11] the target is unchanged. As to the kind of experiment: affinity capture on synNAPS-13 streptavidin beads from corn leaf extract, eluate measured by ELISA.
The target in experiment [12] is eCry3.1Ab hybrid insecticidal protein. As to the kind of experiment: direct ELISA, coated protein, SA-AP, 405 nm.
In experiment [13] the target is T1, Cry1Ab insecticidal protein. As to the kind of experiment: direct ELISA: protein coated at 500 ng/ml, 10 nM tagged synNAPS with SA-AP.
Experiment [14] has as its target Cry1Ab.1Ca insecticidal protein. Described as above.
In experiment [15] the target is Cry1Ai insecticidal protein. The experiment is described as above.
In experiment [16] the target is T2, mCry3A insecticidal protein. The experiment is described as above.
Experiment [17] addresses eCry3.1Ab hybrid insecticidal protein. The experiment is described as above.
For experiment [18], the target named is T3, Cry1Aa insecticidal protein. Described as above.

B1: synNAPS-13 ligand (designed binder)
chain: MVKVKFKRWGEEKEVDTSKILHVLRVGKYVRFSYDDNGKLGAGYVTEKDAPKELLDMLARAEREKK
Take B1: the binding result in [1] and in experiment [2] was “no binding” each time. For the same molecule, the “Binding (OD 450 nm)” value in experiment [3] came out at 4.1 OD 450 nm.

B2: synNAPS-13tag ligand (designed binder)
chain: MRGSHHHHHHGSVKVKFKRWGEEKEVDTSKILHVLRVGKYVRFSYDDNGKLGAGYVTEKDAPKELLDMLARAEREKKLGSGLNDIFEAQKIEWH
modifications: in vivo biotinylation (E. coli BirA strain) on the C-terminal avidin-tag
notes: also called tagged synNAPS 13
Regarding B2, the binding result in experiment [4], in [5], in experiment [6], in experiment [7] and in [8] was “no binding (tested: 10 nM)” each time. For the same molecule, the “Absorbance at protein concentration (ng/ml)” value (shortened to “Absorbance”) in experiment [9] and in [10] was 0 absorbance 450 nm in each case. In addition, the “Quantity of Protein (ng/ml) eluted from synNAPS-13 beads” value in experiment [11] came to 0 ng/mL.

B3: synNAPS-5tag ligand (designed binder)
chain: MRGSHHHHHHGSVKVKFVLKGEEKEVDTSKITYVARYGKFVQFDYDDNGKFGAGVVLEKDAPKELLDMLARAEREKKLGSGLNDIFEAQKIEWH
modifications: in vivo biotinylation (E. coli BirA strain) on the C-terminal avidin-tag
notes: also called tagged synNAPS 5
With B3, the binding result in [12], in experiment [5], in experiment [6] and in experiment [7] was “no binding (tested: 10 nM)” throughout. Also, the results for the “Binding to Insecticidal Protein (read at 405 nm)” value (from here on “Binding to Insecticidal Protein”) in experiment [13] and in [14] were 1.1 absorbance 405 nm and 1.6 absorbance 405 nm, respectively.

B4: synNAPS-2tag ligand (designed binder)
chain: MRGSHHHHHHGSVKVKFKYKGEEKEVDTSKIVWIGRFGKSVYFRYDDNGKTGAGRVYEKDAPKELLDMLARAEREKKLGSGLNDIFEAQKIEWH
modifications: in vivo biotinylation (E. coli BirA strain) on the C-terminal avidin-tag
notes: also called tagged synNAPS 2
B4: the binding result in [12], in experiment [5] and in experiment [6] was “no binding (tested: 10 nM)” each time. Besides, the “Binding to Insecticidal Protein” value in [13] was 1.8 absorbance 405 nm; in experiment [15], 2.5 absorbance 405 nm; in experiment [14], 1 absorbance 405 nm. In addition, the “Absorbance” value in experiment [9] was determined as 4 absorbance 450 nm; in [10] it was 0 absorbance 450 nm.

B5: synNAPS-4tag ligand (designed binder)
chain: MRGSHHHHHHGSVKVKFKYKGEEKEVDTSKISYVQRAGKSVYFNYDDNGKTGGGRVFEKDAPKELLDMLARAEREKKLGSGLNDIFEAQKIEWH
modifications: in vivo biotinylation (E. coli BirA strain) on the C-terminal avidin-tag
notes: also called tagged synNAPS 4
With B5, the binding result in experiment [12], in [5] and in experiment [6] was “no binding (tested: 10 nM)” in each case. In addition, the results for the “Binding to Insecticidal Protein” value in experiment [13], in experiment [15] and in experiment [14] were 1.75 absorbance 405 nm, 2.6 absorbance 405 nm and 0.75 absorbance 405 nm, respectively.

B6: synNAPS-9tag ligand (designed binder)
chain: MRGSHHHHHHGSVKVKFAQGGEEKEVDTSKIYRVPRHGKIVFFMYDDNGKGGFGHVTEKDAPKELLDMLARAEREKKLGSGLNDIFEAQKIEWH
modifications: in vivo biotinylation (E. coli BirA strain) on the C-terminal avidin-tag
notes: also called NsynNAPS9; tagged synNAPS 9
In the case of B6, the binding result in experiment [4], in experiment [12], in experiment [6], in experiment [7] and in experiment [8] was “no binding (tested: 10 nM)” each time. For the same molecule, the “Binding to Insecticidal Protein” value in [16] stood at 0.7 absorbance 405 nm. Further, the “Absorbance” value turned out to be 0 absorbance 450 nm in [9] and 2 absorbance 450 nm in experiment [10].

B7: synNAPS-11tag ligand (designed binder)
chain: MRGSHHHHHHGSVKVKFGLGGEEKEVDTSKIRRVLRLGKLVSFTYDDNGKIGLGDVHEKDAPKELLDMLARAEREKKLGSGLNDIFEAQKIEWH
modifications: in vivo biotinylation (E. coli BirA strain) on the C-terminal avidin-tag
notes: also called tagged synNAPS 11
For B7, the binding result in [4] and in experiment [8] was “no binding (tested: 10 nM)” throughout. The “Binding to Insecticidal Protein” value came out at 1.5 absorbance 405 nm in experiment [17], 2.9 absorbance 405 nm in experiment [16], 0.6 absorbance 405 nm in experiment [18] and 0.7 absorbance 405 nm in experiment [15].
